Experimental data: patent US20200024330A1

How the values were obtained:
Experiment in all cases: cell-based or functional assay
[1] = target: HIV-1 MGRM-F1-016 Env (pseudovirus) (HIV-1)
[2] = target: HIV-1 MGRM-F1-017 Env (pseudovirus) (HIV-1)
[3] = target: HIV-1 Env of pseudovirus TRJ0.58 (Acute), clade B (HIV-1)
[4] = target: HIV-1 LAVI_C22 Env (HIV-1)
[5] = target: HIV-1 IAVI-C22 envelope protein (Env) on pseudovirus (HIV-1)
[6] = target: HIV-1 VLGCA1 envelope glycoprotein (Env) on pseudovirus (HIV-1)
[7] = target: HIV-1 Env of isolate MGRM-D-014 (clade D) (HIV-1)
[8] = target: HIV-1 Env of isolate MGRM-D-002 (clade D) (HIV-1)
[9] = target: HIV-1 97ZA012 envelope glycoprotein (Env) on pseudovirus (HIV-1)
[10] = target: HIV-1 Env of pseudovirus NL43, clade B (HIV-1)
[11] = target: HIV-1 Env of pseudovirus THR0.18 (Acute), clade B (HIV-1)
[12] = target: HIV-1 MGRM-A-005 envelope glycoprotein (Env) (HIV-1)
[13] = target: aMLV envelope protein on pseudovirus
[14] = target: HIV-1 94UG114 envelope glycoprotein (Env) on pseudovirus (HIV-1)
[15] = target: HIV-1 94UG103 envelope protein (Env) on pseudovirus (HIV-1)
[16] = target: HIV-1 Env of pseudovirus VLGCB3, clade B (HIV-1)
[17] = target: HIV-1 Env of pseudovirus MGRM-Chronic-B-002, clade B (HIV-1)
[18] = target: HIV-1 Env of isolate 92UG005 (clade D) (HIV-1)
[19] = target: HIV-1 MGRM-F1-020 Env (pseudovirus) (HIV-1)
[20] = target: HIV-1 JR-CSF Env R166A (HIV-1 (isolate JR-CSF)) (UniProt P20871)
[21] = target: HIV-1 Env of isolate MGRM-A-014 (clade A), on pseudovirus (HIV-1)
[22] = target: HIV-1 JR-CSF Env V120A (HIV-1 (isolate JR-CSF)) (UniProt P20871)
[23] = target: HIV-1 Env of isolate 92UG114 (HIV-1)
[24] = target: HIV-1 Env of isolate 94UG103 (HIV-1)
[25] = target: HIV-1 Env of isolate MGRM-AE-001 (CRF01_AE), on pseudovirus (HIV-1)
[26] = target: HIV-1 Env of isolate MGRM-F1-014 (subtype F), on pseudovirus (HIV-1)
[27] = target: HIV-1 Env of isolate MGRM-D-020 (HIV-1)
[28] = target: HIV-1 JR-CSF Env D167A (HIV-1 (isolate JR-CSF)) (UniProt P20871)
[29] = target: HIV-1 Env of isolate MGRM-C-025 (HIV-1)
[30] = target: HIV-1 JR-CSF Env G471A (HIV-1 (isolate JR-CSF)) (UniProt P20871)
[31] = target: HIV-1 Env of isolate MGRM-Chronic-B-001 (HIV-1)
[32] = target: HIV-1 MGRM-A-010 envelope glycoprotein (Env) on pseudovirus (HIV-1)

4E10 (antibody)
IC50 (µg/ml), pseudovirus neutralization [1]: 7.61 µg/mL | IC50 (µg/ml), pseudovirus neutralization [2]: 4.92 µg/mL | IC50 (µg/ml), pseudovirus neutralization [3]: 11.9 µg/mL | IC50 [4]: 2.02 µg/mL | neutralization IC50 [5]: 1.02 µg/mL | IC50 (µg/ml), pseudovirus neutralization [6]: 4.58 µg/mL | IC50 (µg/ml), pseudovirus neutralization [7]: 3.24 µg/mL | IC50 (µg/ml), pseudovirus neutralization [8]: 9.44 µg/mL | IC50 (µg/ml), pseudovirus neutralization [9]: 4.7 µg/mL | IC50 (µg/ml), pseudovirus neutralization [10]: 4.67 µg/mL | IC50 (µg/ml), pseudovirus neutralization [11]: 4.68 µg/mL | IC50 (µg/ml), pseudovirus neutralization [12]: 4.09 µg/mL | neutralization IC50 [13]: > 50 µg/mL | IC50 (µg/ml), pseudovirus neutralization [14]: 9.72 µg/mL | neutralization IC50 [15]: 9.7 µg/mL | IC50 (µg/ml), pseudovirus neutralization [16]: 5.76 µg/mL | IC50 (µg/ml), pseudovirus neutralization [17]: 2.19 µg/mL | IC50 (µg/ml), pseudovirus neutralization [18]: 7.46 µg/mL | IC50 (µg/ml), pseudovirus neutralization [19]: 0.66 µg/mL

5114_A19 (PGT-128) (antibody)
Fold IC50 increase relative to wild-type [20]: 2.7 fold | IC50, single-round pseudovirus neutralization [21]: 0.007 µg/mL | Fold IC50 increase relative to wild-type [22]: 1.4 fold | IC50 [23]: 0.083 µg/mL | neutralization IC50 [24]: 0.011 µg/mL | IC50, single-round pseudovirus neutralization [25]: 0.069 µg/mL | IC50, pseudovirus neutralization [26]: 0.277 µg/mL | IC50 [27]: 0.011 µg/mL | Fold IC50 increase relative to wild-type [28]: 0.3 fold | IC50 [29]: 10.5 µg/mL | Fold IC50 increase relative to wild-type [30]: 0.9 fold | IC50 [31]: > 50 µg/mL

5343_B08 (PGT-135) (antibody)
Fold IC50 increase relative to wild-type [20]: 0.9 fold | IC50, single-round pseudovirus neutralization [21]: 0.636 µg/mL | Fold IC50 increase relative to wild-type [22]: 1.4 fold | IC50 [23]: 1.29 µg/mL | neutralization IC50 [24]: > 50 µg/mL | IC50, single-round pseudovirus neutralization [25]: > 50 µg/mL | IC50, pseudovirus neutralization [26]: > 50 µg/mL | IC50 [27]: > 50 µg/mL | Fold IC50 increase relative to wild-type [28]: 0.7 fold | IC50 [29]: > 50 µg/mL | Fold IC50 increase relative to wild-type [30]: 3 fold | IC50 [31]: > 50 µg/mL

2F5 (antibody)
IC50 (µg/ml), pseudovirus neutralization [1]: 21.5 µg/mL | IC50 (µg/ml), pseudovirus neutralization [2]: > 50 µg/mL | IC50 (µg/ml), pseudovirus neutralization [3]: > 50 µg/mL | IC50 [4]: > 50 µg/mL | neutralization IC50 [5]: > 50 µg/mL | IC50 (µg/ml), pseudovirus neutralization [6]: 3.9 µg/mL | IC50 (µg/ml), pseudovirus neutralization [7]: 2.22 µg/mL | IC50 (µg/ml), pseudovirus neutralization [8]: 24.6 µg/mL | IC50 (µg/ml), pseudovirus neutralization [9]: > 50 µg/mL | IC50 (µg/ml), pseudovirus neutralization [10]: 2.02 µg/mL | IC50 (µg/ml), pseudovirus neutralization [11]: > 50 µg/mL | IC50 (µg/ml), pseudovirus neutralization [12]: 5.7 µg/mL | neutralization IC50 [13]: > 50 µg/mL | IC50 (µg/ml), pseudovirus neutralization [14]: > 50 µg/mL | neutralization IC50 [15]: 3.79 µg/mL | IC50 (µg/ml), pseudovirus neutralization [16]: > 50 µg/mL | IC50 (µg/ml), pseudovirus neutralization [17]: 1.25 µg/mL | IC50 (µg/ml), pseudovirus neutralization [18]: 8.61 µg/mL | IC50 (µg/ml), pseudovirus neutralization [19]: 0.59 µg/mL

2G12 (antibody)
IC50 (µg/ml), pseudovirus neutralization [1]: > 50 µg/mL | IC50 (µg/ml), pseudovirus neutralization [2]: > 50 µg/mL | IC50 (µg/ml), pseudovirus neutralization [3]: > 50 µg/mL | IC50 [4]: > 50 µg/mL | neutralization IC50 [5]: > 50 µg/mL | IC50 (µg/ml), pseudovirus neutralization [6]: > 50 µg/mL | IC50 (µg/ml), pseudovirus neutralization [7]: > 50 µg/mL | IC50 (µg/ml), pseudovirus neutralization [8]: > 50 µg/mL | IC50 (µg/ml), pseudovirus neutralization [9]: > 50 µg/mL | IC50 (µg/ml), pseudovirus neutralization [10]: 0.49 µg/mL | IC50 (µg/ml), pseudovirus neutralization [11]: > 50 µg/mL | IC50 (µg/ml), pseudovirus neutralization [12]: > 50 µg/mL | neutralization IC50 [13]: > 50 µg/mL | IC50 (µg/ml), pseudovirus neutralization [14]: 13.9 µg/mL | neutralization IC50 [15]: > 50 µg/mL | IC50 (µg/ml), pseudovirus neutralization [16]: 7.9 µg/mL | IC50 (µg/ml), pseudovirus neutralization [17]: > 50 µg/mL | IC50 (µg/ml), pseudovirus neutralization [18]: > 50 µg/mL | IC50 (µg/ml), pseudovirus neutralization [19]: > 50 µg/mL

5147_N06 (PGT-130) (antibody)
Fold IC50 increase relative to wild-type [20]: 1.2 fold | IC50, single-round pseudovirus neutralization [21]: 0.161 µg/mL | Fold IC50 increase relative to wild-type [22]: 0.8 fold | IC50 [23]: > 50 µg/mL | neutralization IC50 [24]: 1.4 µg/mL | IC50, single-round pseudovirus neutralization [25]: 1 µg/mL | IC50, pseudovirus neutralization [26]: 11.8 µg/mL | IC50 [27]: 24.7 µg/mL | Fold IC50 increase relative to wild-type [28]: 1.2 fold | IC50 [29]: > 50 µg/mL | neutralization IC50 [18]: 0.474 µg/mL | neutralization IC80 [18]: > 10 µg/mL | neutralization IC90 [18]: > 10 µg/mL | neutralization IC95 [18]: > 10 µg/mL | Fold IC50 increase relative to wild-type [30]: 0.8 fold | IC50 (ug/ml), neutralizing activity [32]: 0.0054 µg/mL | IC50 [31]: > 50 µg/mL
